Earlier results in patent US20020001615A1, “Combined interferon alfa and lipsosmal-encapsulated all-trans retinoic acid, including preparation and use” (Aronex Pharmaceuticals, Inc., priority 2000, published 2002).
Read-outs that look alike come from different tables or passages of the source.

Legend:
[1] = after three months on therapy, concomitant IFN

| peak levels of atra in the serum [1] | Compound | stable for (time) (at 30° C.) | stable for (time) (at 35° C.) |
| --- | --- | --- | --- |
| – | Interferon alfa-2b | up to 14 days | up to 7 days |
| declined | CC1=C(/C=C/C(C)=C/C=C/C(C)=C/C(=O)O)C(C)(C)CCC1 [ATRA, all-trans retinoic acid] | – | – |
